4 molecules from paper PMC7192615, “Structure specific recognition of telomeric repeats containing RNA by the RGG-box of hnRNPA1” can be followed below.

Data set [1] has as its target T1, UP1+RGG (UniProt P09651-2 1-249). Put plainly: ITC; 100 mM KCl; ITC/CD: 20 mM Tris pH 8.0, 100 mM KCl, 25 C; NMR: 10 mM potassium phosphate pH 6.5, 100 mM KCl, 298 K (10% D2O for HSQC). The settings on record: protein: recombinant, tags: C-terminal 6xHis. In general terms: ITC needs no label: the signal is the heat of the interaction.
Another data set addresses UP1 (UniProt P09651-2 1-196). The data set is described as above. Conditions: protein: recombinant, tags: C-terminal 6xHis.
In data set [2] the target is T2, RGG-box (isolated) (UniProt P09651-2 197-249). Put plainly: NMR HSQC CSP titration (global fit); 100 mM KCl; ITC/CD: 20 mM Tris pH 8.0, 100 mM KCl, 25 C; NMR: 10 mM potassium phosphate pH 6.5, 100 mM KCl, 298 K (10% D2O for HSQC). The settings on record: protein: recombinant; tags: GST removed by TEV; intramolecular parallel G4.
The target of data set [3] is T1, UP1+RGG. Put plainly: ITC; 100 mM KCl, 20% PEG 200; ITC/CD: 20 mM Tris pH 8.0, 100 mM KCl, 25 C; NMR: 10 mM potassium phosphate pH 6.5, 100 mM KCl, 298 K (10% D2O for HSQC). The settings on record: protein: recombinant; tags: C-terminal 6xHis; intramolecular parallel G4.
For data set [4], the target named is T2, RGG-box (isolated). Put plainly: ITC; 100 mM KCl; ITC/CD: 20 mM Tris pH 8.0, 100 mM KCl, 25 C; NMR: 10 mM potassium phosphate pH 6.5, 100 mM KCl, 298 K (10% D2O for HSQC). The settings on record: protein: recombinant; tags: GST removed by TEV; intramolecular parallel G4.
Setting [5] is: parallel G4 tetramer of 4 strands, no loops.
Setting [6] is: parallel G4 dimer of 2 strands, two loops.

Sequence of UP1 (P09651 1-196): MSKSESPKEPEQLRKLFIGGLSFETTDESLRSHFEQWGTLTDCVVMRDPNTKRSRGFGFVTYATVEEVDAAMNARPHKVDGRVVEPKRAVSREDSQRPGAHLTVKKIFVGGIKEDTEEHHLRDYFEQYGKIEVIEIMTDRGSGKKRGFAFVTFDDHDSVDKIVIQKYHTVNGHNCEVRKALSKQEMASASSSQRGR
T1 sequence (P09651 1-249): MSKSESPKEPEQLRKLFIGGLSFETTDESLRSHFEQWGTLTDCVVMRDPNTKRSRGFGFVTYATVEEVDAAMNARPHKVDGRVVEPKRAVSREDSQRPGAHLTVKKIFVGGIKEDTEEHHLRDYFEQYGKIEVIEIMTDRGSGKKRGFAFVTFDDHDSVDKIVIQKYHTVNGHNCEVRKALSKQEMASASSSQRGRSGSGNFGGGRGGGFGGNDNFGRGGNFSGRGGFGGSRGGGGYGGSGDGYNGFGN
T2 sequence (P09651 197-249): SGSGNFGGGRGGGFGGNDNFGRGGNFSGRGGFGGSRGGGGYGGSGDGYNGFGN

B1: ssRNA-18 (ssRNA)
RNA: GAGUAACCCGUAUCGUGA
For orientation: Kd means the concentration at which binding is half-saturated. Regarding B1, the Kd with UP1+RGG [1] (single strand, 18 nt) was 2280 ± 260 nM; with UP1 (single strand, 18 nt), 2370 ± 490 nM.

B2: TERRA-6 (structured_RNA)
RNA: UUAGGG
Turning to B2, the results for the dissociation constant (Kd) with UP1+RGG [1] (setting [5]) and with UP1 (setting [5]) were 2380 ± 230 nM and 2020 ± 170 nM, respectively.

B3: TERRA-24 (structured_RNA)
RNA: UUAGGGUUAGGGUUAGGGUUAGGG
In the case of B3, the dissociation constant (Kd) with RGG-box (isolated) [2] is 11000 ± 1500 nM; with UP1+RGG [3], 3000 ± 550 nM; in the data set with UP1+RGG [1] (intramolecular parallel G4) it was 920 ± 170 nM; with RGG-box (isolated) [4] it was 9000 ± 4300 nM; with UP1 (intramolecular parallel G4), 1710 ± 170 nM.

B4: TERRA-12 (structured_RNA)
RNA: UUAGGGUUAGGG
For B4, the Kd with UP1+RGG [1] (setting [6]) came to 1070 ± 140 nM; in the data set with UP1 (setting [6]) it was 2040 ± 470 nM.
